According to paper doi:10.1101/2025.08.01.668090, “Target Preference Maps: A machine learning model generalizing transferable drug-receptor interactions and guiding drug discovery” (bioRxiv, 2025):
Where no end group is shown, it is not given here.

Biological target: T1, N-terminal domain of T. brucei PEX14 (residues 19-84) (T. brucei, UniProt Q38CL4 19-84)
T1 construct: also called N-His-PEX14; source: E. coli BL21(DE3), purified (Ni-NTA, Superdex 75); not shown: His tag, N-terminal, kept
T1 sequence (looked up): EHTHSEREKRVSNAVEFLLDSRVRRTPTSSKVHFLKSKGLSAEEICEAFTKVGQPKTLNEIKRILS
Assay: AlphaScreen or HTRF; 3 nM N-His-PEX14 with 10 nM biotinylated PEX5-derived peptide in PBS with 5 mg/mL BSA and 0.01 % (v/v) Tween-20; streptavidin donor beads and nickel chelate acceptor beads, 5 ug/mL each; competition with small-molecule inhibitors (600-0 uM), 5% DMSO
Conditions: both partners purified

B1: biotinylated PEX5-derived peptide (ALSENWAQEFLA) (peptide)
peptide: ALSENWAQEFLA
modifications: also: biotinylated (position not given here)
notes: PEX5-derived peptide with a WxxxF motif; Held on streptavidin donor beads by its biotin; The same peptide was used with PEX14 of all three species
Question: Does B1 bind?
Answer: binds
